# Measured values reported in IntAct's records for PubMed 15156152.
# B1: Integrin beta-5 (Homo sapiens), P18084 (parent)
# chain: MPRAPAPLYACLLGLCALLPRLAGLNICTSGSATSCEECLLIHPKCAWCSKEDFGSPRSITSRCDLRANLVKNGCGGEIESPASSFHVLRSLPLSSKGSGSAGWDVIQMTPQEIAVNLRPGDKTTFQLQVRQVEDYPVDLYYLMDLSLSMKDDLDNIRSLGTKLAEEMRKLTSNFRLGFGSFVDKDISPFSYTAPRYQTNPCIGYKLFPNCVPSFGFRHLLPLTDRVDSFNEEVRKQRVSRNRDAPEGGFDAVLQAAVCKEKIGWRKDALHLLVFTTDDVPHIALDGKLGGLVQPHDGQCHLNEANEYTASNQMDYPSLALLGEKLAENNINLIFAVTKNHYMLYKNFTALIPGTTVEILDGDSKNIIQLIINAYNSIRSKVELSVWDQPEDLNLFFTATCQDGVSYPGQRKCEGLKIGDTASFEVSLEARSCPSRHTEHVFALRPVGFRDSLEVGVTYNCTCGCSVGLEPNSARCNGSGTYVCGLCECSPGYLGTRCECQDGENQSVYQNLCREAEGKPLCSGRGDCSCNQCSCFESEFGKIYGPFCECDNFSCARNKGVLCSGHGECHCGECKCHAGYIGDNCNCSTDISTCRGRDGQICSERGHCLCGQCQCTEPGAFGEMCEKCPTCPDACSTKRDCVECLLLHSGKPDNQTCHSLCRDEVITWVDTIVKDDQEAVLCFYKTAKDCVMMFTYVELPSGKSNLTVLREPECGNTPNAMTILLAVVGSILLVGLALLAIWKLLVTIHDRREFAKFQSERSRARYEMASNPLYRKPISTHTVDFTFNKFNKSYNGTVD
# Variants of: B1
# Conditions: with myo10_mouse Myo10, F8VQB6
# Chain of myo10_mouse Myo10, F8VQB6 (F8VQB6 whole entry): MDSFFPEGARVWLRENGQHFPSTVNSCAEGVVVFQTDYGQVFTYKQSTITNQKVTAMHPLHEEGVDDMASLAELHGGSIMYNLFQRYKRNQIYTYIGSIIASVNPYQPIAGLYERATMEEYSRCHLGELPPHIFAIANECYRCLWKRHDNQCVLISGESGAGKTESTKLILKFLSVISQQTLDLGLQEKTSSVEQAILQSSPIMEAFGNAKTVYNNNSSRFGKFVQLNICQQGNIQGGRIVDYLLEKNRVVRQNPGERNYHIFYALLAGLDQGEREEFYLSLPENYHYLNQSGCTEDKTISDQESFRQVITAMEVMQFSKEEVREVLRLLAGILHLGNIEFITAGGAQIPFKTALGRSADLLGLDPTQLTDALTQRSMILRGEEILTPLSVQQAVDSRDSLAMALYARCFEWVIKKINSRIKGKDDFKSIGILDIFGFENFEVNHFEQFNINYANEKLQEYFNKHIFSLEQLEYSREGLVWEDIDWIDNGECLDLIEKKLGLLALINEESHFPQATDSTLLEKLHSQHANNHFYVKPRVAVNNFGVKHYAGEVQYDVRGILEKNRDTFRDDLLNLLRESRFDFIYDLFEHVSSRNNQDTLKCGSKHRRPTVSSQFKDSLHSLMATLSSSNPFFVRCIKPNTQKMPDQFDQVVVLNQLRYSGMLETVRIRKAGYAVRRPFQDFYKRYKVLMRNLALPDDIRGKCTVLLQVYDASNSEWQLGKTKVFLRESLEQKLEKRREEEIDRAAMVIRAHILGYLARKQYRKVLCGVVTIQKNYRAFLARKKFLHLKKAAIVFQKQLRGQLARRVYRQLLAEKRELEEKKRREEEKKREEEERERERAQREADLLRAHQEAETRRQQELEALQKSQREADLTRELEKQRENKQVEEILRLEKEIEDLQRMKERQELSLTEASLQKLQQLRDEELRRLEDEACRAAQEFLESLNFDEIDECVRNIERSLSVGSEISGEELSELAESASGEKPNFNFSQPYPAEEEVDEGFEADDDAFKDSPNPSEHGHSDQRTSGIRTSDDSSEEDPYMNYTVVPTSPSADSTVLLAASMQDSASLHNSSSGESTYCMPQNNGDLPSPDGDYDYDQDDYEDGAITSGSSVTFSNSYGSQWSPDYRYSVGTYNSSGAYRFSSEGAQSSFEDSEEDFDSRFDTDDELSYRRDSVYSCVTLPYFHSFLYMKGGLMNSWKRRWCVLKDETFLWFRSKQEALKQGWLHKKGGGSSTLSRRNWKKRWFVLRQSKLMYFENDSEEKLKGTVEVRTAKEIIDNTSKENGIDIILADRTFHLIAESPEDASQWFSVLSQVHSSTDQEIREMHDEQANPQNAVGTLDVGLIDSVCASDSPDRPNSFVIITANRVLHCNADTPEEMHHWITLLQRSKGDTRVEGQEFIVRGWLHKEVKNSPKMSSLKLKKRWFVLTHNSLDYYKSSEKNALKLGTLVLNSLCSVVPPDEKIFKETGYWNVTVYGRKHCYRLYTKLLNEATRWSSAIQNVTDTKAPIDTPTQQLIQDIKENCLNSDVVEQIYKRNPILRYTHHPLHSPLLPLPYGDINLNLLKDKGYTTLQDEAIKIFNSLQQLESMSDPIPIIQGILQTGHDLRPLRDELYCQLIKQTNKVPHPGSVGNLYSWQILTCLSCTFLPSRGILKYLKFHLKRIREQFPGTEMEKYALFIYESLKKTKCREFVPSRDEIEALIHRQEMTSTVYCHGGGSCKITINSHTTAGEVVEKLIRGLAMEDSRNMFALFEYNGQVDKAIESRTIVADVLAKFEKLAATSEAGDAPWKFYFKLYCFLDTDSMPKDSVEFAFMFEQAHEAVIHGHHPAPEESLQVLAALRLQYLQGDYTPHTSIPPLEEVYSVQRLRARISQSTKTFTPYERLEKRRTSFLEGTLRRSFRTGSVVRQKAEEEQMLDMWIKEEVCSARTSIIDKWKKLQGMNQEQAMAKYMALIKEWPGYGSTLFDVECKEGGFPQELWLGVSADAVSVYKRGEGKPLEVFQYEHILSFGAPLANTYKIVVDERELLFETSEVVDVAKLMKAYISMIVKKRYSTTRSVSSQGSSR
row,Variant,effect of a mutation on the interaction
1,Y774A,disrupting interaction
2,L773A,decreasing interaction
3,P772A,disrupting interaction

# Variants of: B1
# Conditions: with myo10_bovin MYO10, P79114
# Chain of myo10_bovin MYO10, P79114 (P79114 whole entry): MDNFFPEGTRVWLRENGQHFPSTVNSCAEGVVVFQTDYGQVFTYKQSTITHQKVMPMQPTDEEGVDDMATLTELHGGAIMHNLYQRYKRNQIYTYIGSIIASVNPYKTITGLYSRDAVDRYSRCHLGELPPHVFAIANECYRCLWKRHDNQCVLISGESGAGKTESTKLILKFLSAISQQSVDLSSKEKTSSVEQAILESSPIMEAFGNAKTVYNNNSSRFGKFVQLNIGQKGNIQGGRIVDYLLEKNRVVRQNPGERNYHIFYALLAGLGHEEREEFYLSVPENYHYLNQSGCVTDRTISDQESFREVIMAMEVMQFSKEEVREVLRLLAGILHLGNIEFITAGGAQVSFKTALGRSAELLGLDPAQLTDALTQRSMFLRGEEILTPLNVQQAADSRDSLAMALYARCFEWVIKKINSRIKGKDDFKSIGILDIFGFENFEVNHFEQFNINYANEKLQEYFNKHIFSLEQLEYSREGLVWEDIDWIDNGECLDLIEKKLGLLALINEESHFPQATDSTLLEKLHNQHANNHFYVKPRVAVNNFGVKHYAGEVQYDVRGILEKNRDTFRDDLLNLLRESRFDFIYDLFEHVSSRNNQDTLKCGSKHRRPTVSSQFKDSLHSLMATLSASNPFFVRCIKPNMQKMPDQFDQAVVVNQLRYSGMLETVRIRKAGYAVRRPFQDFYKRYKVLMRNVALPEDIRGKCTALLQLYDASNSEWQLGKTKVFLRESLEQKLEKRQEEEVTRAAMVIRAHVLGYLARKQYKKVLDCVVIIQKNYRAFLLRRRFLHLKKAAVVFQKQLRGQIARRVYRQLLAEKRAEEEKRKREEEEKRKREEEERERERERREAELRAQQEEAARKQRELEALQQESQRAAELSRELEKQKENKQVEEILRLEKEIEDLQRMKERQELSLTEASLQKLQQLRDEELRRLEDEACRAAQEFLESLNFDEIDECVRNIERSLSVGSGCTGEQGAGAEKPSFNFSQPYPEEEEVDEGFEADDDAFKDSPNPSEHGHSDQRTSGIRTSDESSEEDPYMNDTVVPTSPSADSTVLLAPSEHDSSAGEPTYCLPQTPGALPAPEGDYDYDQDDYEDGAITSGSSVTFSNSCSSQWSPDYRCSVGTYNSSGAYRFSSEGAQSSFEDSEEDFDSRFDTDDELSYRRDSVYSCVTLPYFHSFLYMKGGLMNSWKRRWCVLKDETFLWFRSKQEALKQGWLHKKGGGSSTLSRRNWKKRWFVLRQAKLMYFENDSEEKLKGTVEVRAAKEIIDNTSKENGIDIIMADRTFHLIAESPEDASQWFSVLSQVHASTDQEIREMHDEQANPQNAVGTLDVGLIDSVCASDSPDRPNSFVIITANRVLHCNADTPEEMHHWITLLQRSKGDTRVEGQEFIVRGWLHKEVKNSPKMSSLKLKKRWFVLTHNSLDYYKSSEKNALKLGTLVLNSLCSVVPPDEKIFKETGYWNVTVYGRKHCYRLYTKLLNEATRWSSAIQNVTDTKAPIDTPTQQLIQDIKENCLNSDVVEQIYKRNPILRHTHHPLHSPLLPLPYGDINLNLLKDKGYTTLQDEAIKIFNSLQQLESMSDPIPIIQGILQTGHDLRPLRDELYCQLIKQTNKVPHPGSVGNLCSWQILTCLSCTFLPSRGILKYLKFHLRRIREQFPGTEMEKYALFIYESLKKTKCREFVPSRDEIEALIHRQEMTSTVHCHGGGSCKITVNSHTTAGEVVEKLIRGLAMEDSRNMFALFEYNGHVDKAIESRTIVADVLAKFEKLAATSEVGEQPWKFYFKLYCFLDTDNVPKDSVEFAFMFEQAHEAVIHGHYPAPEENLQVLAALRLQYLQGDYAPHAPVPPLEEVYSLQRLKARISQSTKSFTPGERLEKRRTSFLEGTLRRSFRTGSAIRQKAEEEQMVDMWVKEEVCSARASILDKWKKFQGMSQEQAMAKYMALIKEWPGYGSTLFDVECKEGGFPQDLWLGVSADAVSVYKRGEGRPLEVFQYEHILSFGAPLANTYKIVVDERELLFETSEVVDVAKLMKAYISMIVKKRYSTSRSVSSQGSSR
row,Variant,effect of a mutation on the interaction
1,P772A,disrupting interaction
